Reference: article PMC5341729 (Molecular Biology of the Cell, 2017)

B1: mCherry-MYRIP (MYO7A-Rab interacting protein), MYRIP^PREY (natural protein)
chain: MGRKLDLSGLTDDETEHVLQVVQRDFNLRKKEEERLSELKQKLDEEGSKCSILSKHQQFVEHCCMRCCSPFTFLVNTKRQCGDCKFNVCKSCCSYQKHEKAWVCCVCQQARLLRAQSLEWFYNNVKSRFKRFGSAKVLKNLYRKHRLESGACFDILGGSLFESNLENEGSISGSDSTFYRQSEGHSVMDTLAVALRVAEEAIEEAISKAEAYGDSLDKQNEASYLRDHKEELTEELATTILQKIIRKQKSKSEQQVEEEPGWPHPQSCSTKVADEGTSASPGGYRAPAALWRSQSAFSITGEEALKTPPVEAPSRQPRDQGQHPRAESALPSWKSVDRLDETNLAPVLQSPDGNWVALKDGAPPPTRLLAKPKSGTFQALEVASSVASAYDEMGSDSEEDFDWSEALSKLCPRSRALPRNPQPQPTQAQSSDQGPIAASPSSALSPNPEAMCSDSETSSAGSSREVGHQARLSWLQRKAPRNPAAEKMRLHGELDVNFNPQLASRETSDSSEPEEAPHTTDRRARRWRRARLGSEEPSKEPSSPSAQLRDLDTHQVSDDLSETDISNEARDPQTLTDTTEEKRRNRLYELAMKMSEKETSSGEDQESEPKTESENQKESLSSEDNSQSVQEELKKKFSAVSLCNISTEVLKVINATEELIAGSTGPWESPQVPPDRQKGMFPRGTDQVRLDEQLTSLEENVYLAAGTVYGLETQLTELEDAARCIHSGTDETHLADLEDQVATAAAQVHHAELQISDIESRISALTIAGLNIAPCVRFTRRRDQKQRTQVQTIDTSRQQRRKLPAPPVKAEKIETSSVTTIKTFNHNFILQGSSTNRTKERKGTTKDLMEPALESAVMY
B2: CHD4(561-936)^PREY (domain or fragment)
chain: QVMFRNYQRKNDMDEPPSGDFGGDEEKSRKRKNKDPKFAEMEERFYRYGIKPEWMMIHRILNHSVDKKGHVHYLIKWRDLPYDQASWESEDVEIQDYDLFKQSYWNHRELMRGEEGRPGKKLKKVKLRKLERPPETPTVDPTVKYERQPEYLDATGGTLHPYQMEGLNWLRFSWAQGTDTILADEMGLGKTVQTAVFLYSLYKEGHSKGPFLVSAPLSTIINWEREFEMWAPDMYVVTYVGDKDSRAIIRENEFSFEDNAIRGGKKASRMKKEASVKFHVLLTSYELITIDMAILGSIDWACLIVDEAHRLKNNQSKFFRVLNGYSLQHKLLLTGTPLQNNLEELFHLLNFLTPERFHNLEGFLEEFADIAKEDQI

Tests used:
[1] = target: T1, MYO10-MYO7A(TAIL)^BAIT (EGFP-MYO10^HMM fused to the tail domain of MYO7A) (UniProt Q13402 858-2215); assay: NanoSPD
T1 sequence: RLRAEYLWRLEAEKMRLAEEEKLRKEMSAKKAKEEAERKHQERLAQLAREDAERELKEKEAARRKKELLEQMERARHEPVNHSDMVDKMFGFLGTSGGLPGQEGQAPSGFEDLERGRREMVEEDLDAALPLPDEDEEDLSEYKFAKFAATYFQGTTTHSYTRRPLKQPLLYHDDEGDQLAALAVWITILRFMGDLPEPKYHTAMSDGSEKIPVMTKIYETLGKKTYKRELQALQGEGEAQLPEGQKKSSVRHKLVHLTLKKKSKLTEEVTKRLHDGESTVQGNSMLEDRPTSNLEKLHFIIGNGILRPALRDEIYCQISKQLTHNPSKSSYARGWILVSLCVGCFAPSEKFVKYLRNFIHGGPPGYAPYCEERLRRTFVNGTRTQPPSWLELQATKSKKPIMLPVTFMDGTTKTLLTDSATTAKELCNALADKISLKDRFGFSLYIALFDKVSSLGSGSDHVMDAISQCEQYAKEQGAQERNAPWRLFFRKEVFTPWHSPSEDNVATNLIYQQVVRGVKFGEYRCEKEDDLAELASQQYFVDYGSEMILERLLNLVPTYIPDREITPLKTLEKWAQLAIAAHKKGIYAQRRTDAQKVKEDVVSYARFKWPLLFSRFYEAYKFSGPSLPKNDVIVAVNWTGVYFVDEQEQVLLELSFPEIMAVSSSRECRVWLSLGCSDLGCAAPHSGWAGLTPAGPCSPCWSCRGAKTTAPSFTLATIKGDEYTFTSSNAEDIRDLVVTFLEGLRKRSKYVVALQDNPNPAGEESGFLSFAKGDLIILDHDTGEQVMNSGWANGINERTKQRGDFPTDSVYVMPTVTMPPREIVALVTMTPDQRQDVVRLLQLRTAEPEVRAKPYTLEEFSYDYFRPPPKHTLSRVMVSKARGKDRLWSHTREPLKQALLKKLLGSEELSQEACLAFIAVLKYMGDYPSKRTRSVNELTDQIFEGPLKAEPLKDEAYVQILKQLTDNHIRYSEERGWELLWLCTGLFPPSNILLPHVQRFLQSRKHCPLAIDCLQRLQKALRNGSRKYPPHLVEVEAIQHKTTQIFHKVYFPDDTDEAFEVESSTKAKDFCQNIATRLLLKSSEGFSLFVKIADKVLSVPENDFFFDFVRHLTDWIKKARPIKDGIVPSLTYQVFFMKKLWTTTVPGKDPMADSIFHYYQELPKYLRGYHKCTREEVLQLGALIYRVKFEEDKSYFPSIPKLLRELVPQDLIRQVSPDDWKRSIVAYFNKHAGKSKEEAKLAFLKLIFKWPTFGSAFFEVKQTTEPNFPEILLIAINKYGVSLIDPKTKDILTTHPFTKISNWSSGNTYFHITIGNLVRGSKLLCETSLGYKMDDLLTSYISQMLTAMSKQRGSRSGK

[2] = target: T2, MYO10-TPRN^BAIT (taperin fused to MYO10^HMM) (mouse, UniProt A2AI08 1-749); assay: NanoSPD
T2 sequence: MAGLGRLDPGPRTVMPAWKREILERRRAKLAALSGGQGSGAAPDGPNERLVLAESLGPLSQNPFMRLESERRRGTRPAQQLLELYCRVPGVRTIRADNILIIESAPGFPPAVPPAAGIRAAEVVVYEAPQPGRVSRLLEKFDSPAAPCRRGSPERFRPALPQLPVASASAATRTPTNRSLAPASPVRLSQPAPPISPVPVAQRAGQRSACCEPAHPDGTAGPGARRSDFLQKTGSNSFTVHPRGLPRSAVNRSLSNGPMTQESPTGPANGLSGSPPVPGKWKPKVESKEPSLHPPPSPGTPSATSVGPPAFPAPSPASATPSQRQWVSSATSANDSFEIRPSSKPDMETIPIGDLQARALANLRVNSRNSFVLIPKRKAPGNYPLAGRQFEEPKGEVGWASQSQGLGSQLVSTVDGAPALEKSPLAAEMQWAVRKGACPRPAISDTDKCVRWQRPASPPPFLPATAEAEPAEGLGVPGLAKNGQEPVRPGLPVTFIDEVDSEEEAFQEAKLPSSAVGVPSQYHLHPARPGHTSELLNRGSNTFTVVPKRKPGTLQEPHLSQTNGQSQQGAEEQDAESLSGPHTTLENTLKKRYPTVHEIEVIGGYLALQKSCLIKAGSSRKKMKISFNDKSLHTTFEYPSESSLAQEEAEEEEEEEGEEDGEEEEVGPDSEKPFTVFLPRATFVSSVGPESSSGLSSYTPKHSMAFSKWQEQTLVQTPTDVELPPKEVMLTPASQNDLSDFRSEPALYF

| Binder | fold increase of prey fluorescence at filopodial tips against MYO10^(NO BAIT) [1] [fold] | fold increase of prey fluorescence at filopodial tips against MYO10^(NO BAIT) [2] [fold] |
| --- | --- | --- |
| B1 | 11.8 |  |
| B2 |  | 7 |
